The results in this text go back to US20160137730A1 (Novartis, published 2016).

The target of assay [1] is T1, Cynomolgus Monkey P-cadherin var. 1 (CDH3) D1-5 (cynomolgus monkey).
T1 construct: Cynomolgus CDH3 variant 1 residues 108-654 with a C-terminal 6xHis tag; The printed entry starts with a leader and vector residues; also called Cyno_1 P-cad; cyno1 pCAD-6xHis
The assay can be described thus: SPR Biacore, ADC captured via Protein A, ECD-6xHis analyte, 25C, 1:1 fit. From the text:
(§1) Briefly, HBS-P⁺ (0.01 M HEPES, pH 7.4, 0.15 M NaCl, 0.05% Surfactant P20) supplemented with 2% Odyssey® blocking buffer (Li-Cor Biosciences, Lincoln, Nebr.) was used as the running buffer for all the experiments on the Biacore® T100 instrument. HBS-P (0.01 M HEPES, pH 7.4, 0.15 M NaCl, 0.005% Surfactant P20) supplemented with 2% Odyssey® blocking buffer was used as the running buffer for all the experiments on the Biacore® 2000 instrument. The immobilization level and analyte interactions were measured by response unit (RU).
(§2) For kinetic measurements, experiments were performed in which the antibodies were captured to the sensor chip surface via the immobilized Protein A and the ability of the P-cadherin proteins to bind in free solution was determined. Briefly, 28 μg/ml of Protein A at pH 4.5 was immobilized on a CM5 sensor chip through amine coupling at flow rate of 10 μl/minute on two flow cells to reach 2300-3300 RUs. 0.01-0.25 μg/ml of test antibodies was then injected at 5 μl/min for 3 minute. […] Subsequently, 6.25-100 nM of P-cadherin ECD was diluted in a 2-fold series and injected at a flow rate of 40 μl/min for 2-4 min over both reference and test flow cells. Table 11 of tested ECDs is listed below. Dissociation of the binding was followed for 5 min. After each injection cycle, the chip surface was regenerated with PBS/6 M Guanidine HCl, pH 7.4 at 100 μl/min for 45 seconds.
(Surface plasmon resonance follows binding to a sensor surface in real time, without labels.)

Assay [2] has as its target T2, Cynomolgus Monkey P-cadherin var. 2 (CDH3) D1-5 (cynomolgus monkey).
T2 construct: Cynomolgus CDH3 variant 2 residues 108-654 with a C-terminal 6xHis tag; The printed entry starts with a leader and vector residues; also called Cyno_2 P-cad; cyno2 pCAD-6xHis
The assay is described as above.
From the text: as §1, §2

Assay [3] addresses T3, Human P-cadherin (CDH3) D1-5 (human, UniProt P22223 108-652).
T3 construct: Human CDH3 residues 108-652 with a C-terminal 6xHis tag, made in Tn5 insect cells with baculovirus (NM_001793.4, NP_001784); It may include a secretion signal and vector residues, as the printed cyno constructs do; no cleavage site is stated; also called human pCAD-6xHis; human P-cadherin ECD
The assay is described as above.
From the text: as §1, §2

For the next assay, the target named is Human P-cadherin (human, UniProt P22223 108-829). The assay can be described thus: cell-based or functional assay.
Sequence of Human P-cadherin (P22223 108-829 limits assumed): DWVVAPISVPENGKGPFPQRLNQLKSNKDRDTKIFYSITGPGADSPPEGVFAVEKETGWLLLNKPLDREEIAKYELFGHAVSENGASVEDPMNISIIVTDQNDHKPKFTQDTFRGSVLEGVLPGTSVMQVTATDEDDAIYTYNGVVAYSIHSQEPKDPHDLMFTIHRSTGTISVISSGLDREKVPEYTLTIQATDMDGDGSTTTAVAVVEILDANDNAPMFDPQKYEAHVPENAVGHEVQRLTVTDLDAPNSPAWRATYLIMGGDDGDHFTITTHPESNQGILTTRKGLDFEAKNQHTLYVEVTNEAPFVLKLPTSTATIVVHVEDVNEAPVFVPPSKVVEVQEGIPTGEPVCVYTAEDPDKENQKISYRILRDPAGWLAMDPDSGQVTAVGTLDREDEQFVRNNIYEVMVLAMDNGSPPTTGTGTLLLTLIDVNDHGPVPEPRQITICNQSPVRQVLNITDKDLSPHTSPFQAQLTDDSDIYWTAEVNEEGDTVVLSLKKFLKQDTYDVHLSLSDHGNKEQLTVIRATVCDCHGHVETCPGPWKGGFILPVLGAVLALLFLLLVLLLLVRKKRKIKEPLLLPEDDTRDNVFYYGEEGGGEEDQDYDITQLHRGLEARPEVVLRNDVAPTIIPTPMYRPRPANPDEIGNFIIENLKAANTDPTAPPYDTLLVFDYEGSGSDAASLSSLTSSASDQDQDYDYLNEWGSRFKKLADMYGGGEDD
Assay [4] deals with T4, Rat P-cadherin (CDH3) D1-5 (rat, UniProt P10287 100-647 (mouse entry)).
T4 construct: Rat CDH3 residues 100-647 with a C-terminal 6xHis tag (NM_053938.1, NP_446390); it may include leader and vector residues; also called rat pCAD-6xHis
T4 chain: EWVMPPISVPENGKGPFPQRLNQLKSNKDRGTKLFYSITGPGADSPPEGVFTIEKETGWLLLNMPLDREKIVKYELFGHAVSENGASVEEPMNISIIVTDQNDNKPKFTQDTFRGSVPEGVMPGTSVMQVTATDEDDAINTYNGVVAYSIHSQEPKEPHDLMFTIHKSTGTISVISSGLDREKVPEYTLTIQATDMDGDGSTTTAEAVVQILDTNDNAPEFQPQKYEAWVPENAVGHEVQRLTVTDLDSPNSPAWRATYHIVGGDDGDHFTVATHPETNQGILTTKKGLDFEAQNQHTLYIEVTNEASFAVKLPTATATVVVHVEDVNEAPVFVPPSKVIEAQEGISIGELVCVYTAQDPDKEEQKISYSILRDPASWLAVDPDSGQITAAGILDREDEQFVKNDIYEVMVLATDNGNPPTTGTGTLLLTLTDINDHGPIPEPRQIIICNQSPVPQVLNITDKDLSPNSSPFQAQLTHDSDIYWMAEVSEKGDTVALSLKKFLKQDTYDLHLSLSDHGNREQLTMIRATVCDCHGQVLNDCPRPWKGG
The assay can be described thus: SPR Biacore, Ab captured via Protein A, ECD-6xHis analyte.

The target of assay [5] is T3, Human P-cadherin (CDH3) D1-5. The assay can be described thus: SPR Biacore, Ab captured via Protein A, ECD-6xHis analyte, 25C, 1:1 fit.
From the text: as §1, §2

In assay [6] the target is T5, recombinant human N-cadherin ECD (human, UniProt P19022 160-724).
T5 construct: extracellular domain; also called N-cadherin (CDH2)
T5 sequence (looked up): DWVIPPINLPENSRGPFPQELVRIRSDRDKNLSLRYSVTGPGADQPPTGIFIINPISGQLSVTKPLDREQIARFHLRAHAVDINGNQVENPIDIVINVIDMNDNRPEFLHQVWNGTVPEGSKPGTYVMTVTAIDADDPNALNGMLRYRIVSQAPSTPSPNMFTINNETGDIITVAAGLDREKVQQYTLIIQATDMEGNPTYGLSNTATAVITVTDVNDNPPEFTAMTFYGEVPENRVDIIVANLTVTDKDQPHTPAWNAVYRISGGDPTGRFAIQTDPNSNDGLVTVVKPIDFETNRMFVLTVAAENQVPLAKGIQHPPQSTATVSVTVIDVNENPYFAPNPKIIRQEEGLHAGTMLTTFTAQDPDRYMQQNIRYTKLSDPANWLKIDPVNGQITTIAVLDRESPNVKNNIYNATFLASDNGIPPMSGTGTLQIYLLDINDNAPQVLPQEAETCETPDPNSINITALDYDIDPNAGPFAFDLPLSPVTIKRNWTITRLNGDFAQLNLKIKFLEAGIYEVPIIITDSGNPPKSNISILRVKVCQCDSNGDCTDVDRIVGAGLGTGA
Nature of the assay: ELISA, ECD coated on plate, Fab-containing E. coli lysate. Here is the method: (§3) To assess specificity of binding to P-cadherin vs E-cadherin and N-cadherin, Maxisorp 384-well plates were o/n at 4° C. with recombinant human E-cadherin or N-cadherin ECD and Fab fragments were assayed using an enzyme-linked immunosorbent assay (ELISA) format. After washing, plates were blocked for 2 h with 5% skim milk in 1×PBST. Fab-containing E. coli lysates were added and binding allowed for 1 h at room temperature (RT). To detect bound Fab fragments, plates were washed 5× with TBST and AP-anti human IgG F(ab′)₂ was added in a 1/2500 dilution. After 1 h at RT, plates were washed 5× with TBST and AttoPhos substrate was added according to the manufacturers specifications. Plates were read in an ELISA reader 5 minutes after adding the substrate.

Assay [7] addresses T6, recombinant human E-cadherin ECD (human, UniProt P12830 155-709).
T6 construct: extracellular domain; also called E-cadherin (CDH1)
T6 sequence (looked up): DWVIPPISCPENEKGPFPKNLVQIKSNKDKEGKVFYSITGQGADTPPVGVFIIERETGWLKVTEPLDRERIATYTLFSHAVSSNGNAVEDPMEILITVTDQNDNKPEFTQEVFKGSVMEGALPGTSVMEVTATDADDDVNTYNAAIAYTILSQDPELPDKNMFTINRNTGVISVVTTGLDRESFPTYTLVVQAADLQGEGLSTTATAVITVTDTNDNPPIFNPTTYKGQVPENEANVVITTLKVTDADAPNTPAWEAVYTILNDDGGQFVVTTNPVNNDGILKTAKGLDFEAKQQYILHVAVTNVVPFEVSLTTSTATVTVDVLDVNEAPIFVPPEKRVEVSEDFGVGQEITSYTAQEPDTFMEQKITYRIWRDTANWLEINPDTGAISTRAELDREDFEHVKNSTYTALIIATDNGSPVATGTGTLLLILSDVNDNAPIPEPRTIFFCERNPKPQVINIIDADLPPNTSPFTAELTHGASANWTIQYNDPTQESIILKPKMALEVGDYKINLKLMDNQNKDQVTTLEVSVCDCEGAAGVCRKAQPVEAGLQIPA
Described as above. On the procedure:
as §3

T3 sequence (P22223 108-652 limits assumed): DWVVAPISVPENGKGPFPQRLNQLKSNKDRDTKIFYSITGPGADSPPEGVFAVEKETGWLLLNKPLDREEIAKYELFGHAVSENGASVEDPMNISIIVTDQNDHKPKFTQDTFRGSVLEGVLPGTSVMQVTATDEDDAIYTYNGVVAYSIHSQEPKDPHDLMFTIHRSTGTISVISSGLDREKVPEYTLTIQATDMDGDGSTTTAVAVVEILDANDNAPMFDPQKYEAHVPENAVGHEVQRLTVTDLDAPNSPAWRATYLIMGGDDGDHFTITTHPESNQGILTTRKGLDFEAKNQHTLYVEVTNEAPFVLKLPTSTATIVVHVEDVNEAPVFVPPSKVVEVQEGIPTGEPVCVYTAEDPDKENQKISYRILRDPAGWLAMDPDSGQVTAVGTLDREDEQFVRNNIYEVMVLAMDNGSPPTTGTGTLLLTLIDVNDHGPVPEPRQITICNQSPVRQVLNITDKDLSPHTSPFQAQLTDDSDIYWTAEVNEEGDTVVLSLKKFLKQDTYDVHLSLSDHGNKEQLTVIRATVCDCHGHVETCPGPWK
T1 sequence (chain, as listed by the source limits assumed): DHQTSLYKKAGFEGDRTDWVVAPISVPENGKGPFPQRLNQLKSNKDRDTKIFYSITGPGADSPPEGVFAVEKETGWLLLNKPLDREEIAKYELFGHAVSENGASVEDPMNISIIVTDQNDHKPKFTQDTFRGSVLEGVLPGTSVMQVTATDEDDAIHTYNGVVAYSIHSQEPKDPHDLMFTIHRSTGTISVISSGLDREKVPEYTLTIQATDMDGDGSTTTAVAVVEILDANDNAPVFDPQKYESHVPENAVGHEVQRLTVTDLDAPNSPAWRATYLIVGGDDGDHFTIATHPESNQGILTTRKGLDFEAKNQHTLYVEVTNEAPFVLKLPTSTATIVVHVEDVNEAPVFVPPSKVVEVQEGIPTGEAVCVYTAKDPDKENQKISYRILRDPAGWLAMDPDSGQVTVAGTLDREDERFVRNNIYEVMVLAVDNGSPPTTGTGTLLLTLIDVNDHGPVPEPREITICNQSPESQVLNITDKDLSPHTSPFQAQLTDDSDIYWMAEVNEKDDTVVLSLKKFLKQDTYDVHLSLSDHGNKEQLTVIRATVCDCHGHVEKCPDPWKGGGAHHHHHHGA
T2 sequence (chain, as listed by the source limits assumed): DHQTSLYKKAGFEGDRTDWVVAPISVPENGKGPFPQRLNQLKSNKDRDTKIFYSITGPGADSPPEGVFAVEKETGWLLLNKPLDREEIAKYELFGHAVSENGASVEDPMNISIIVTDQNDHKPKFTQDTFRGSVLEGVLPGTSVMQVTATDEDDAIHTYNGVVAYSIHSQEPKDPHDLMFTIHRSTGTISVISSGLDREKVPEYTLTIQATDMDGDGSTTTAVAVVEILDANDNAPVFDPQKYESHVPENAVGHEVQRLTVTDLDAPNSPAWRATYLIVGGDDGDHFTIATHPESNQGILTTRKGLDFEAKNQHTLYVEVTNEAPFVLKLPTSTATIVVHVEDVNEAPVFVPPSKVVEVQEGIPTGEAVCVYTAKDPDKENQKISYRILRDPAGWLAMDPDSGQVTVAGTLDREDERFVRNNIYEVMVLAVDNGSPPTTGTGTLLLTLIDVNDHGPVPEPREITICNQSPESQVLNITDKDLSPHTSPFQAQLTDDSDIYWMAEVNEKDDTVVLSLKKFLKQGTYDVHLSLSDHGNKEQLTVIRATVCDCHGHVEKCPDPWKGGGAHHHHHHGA

B1: NOV169N31Q-MCC-DM1 (antibody, human IgG1, kappa, V domains shown)
VH: QVQLQQSGPGLVKPSQTLSLTCAISGDSVSSQSAAWNWIRQSPSRGLEWLGRIYYRSKWYNDYALSVKSRITINPDTSKNQFSLQLNSVTPEDTAVYYCARGEGYGREGFAIWGQGTLVTVSS
VL: DIQMTQSPSSLSASVGDRVTITCRASQTISNTLAWYQQKPGKAPKLLIYAASNLQSGVPSRFSGSGSGTDFTLTISSLQPEDFATYYCQQYLSWFTFGQGTKVEIKR
modifications: DM1 (maytansinoid) attached through the MCC linker to primary amines of the antibody; sites not given
notes: MAR 3.7 (one-step process), 3.15 (in situ process), target DAR 3.8; also called NOV169N31Q ADC
Broadly, the Kd is a measure of binding affinity in units of concentration. Molecule B1 registered a Kd in assay [1] of 27.5 nM. For the same molecule, binding in assay [2] was characterised by a dissociation constant (Kd) of 47.1 nM. For the same molecule, binding in assay [3] was characterised by a dissociation constant (Kd) of 27 nM. For the same molecule, in the assay with Human P-cadherin, the “IC50 (nM), CellTiter-Glo proliferation/survival, 5 days, A431 cells” value was 21.8 nM; the “IC50 (nM), CellTiter-Glo proliferation/survival, 5 days, BICR6 cells” value came out at 9.62 nM; the “IC50 (nM), CellTiter-Glo proliferation/survival, 5 days, HCC38 cells” value turned out to be 5.29 nM; the “IC50 (nM), CellTiter-Glo proliferation/survival, 5 days, HCC70 cells” value is 3.23 nM. For the same molecule, in the assay with Human P-cadherin, the “IC50 (nM), CellTiter-Glo proliferation/survival, 5 days, HCC1806 cells” value is 11.4 nM; the “IC50 (nM), CellTiter-Glo proliferation/survival, 5 days, HCC1954 cells” value turned out to be 2.28 nM; the “IC50 (nM), CellTiter-Glo proliferation/survival, 5 days, scaBER cells” value came out at 4.06 nM.

B2: NOV169N31Q (antibody, human IgG1, kappa, V domains shown)
VH: B1 VH
VL: B1 VL
notes: N31Q in HCDR1 removes a deamidation site of parental NOV169; also called anti-P-cadherin antibody NOV169N31Q; NOV169N31Q Naked
Take B2: the binding result in assay [4] is recorded as “no binding (tested: 6.25-100 nM P-cadherin ECD injected)”. Also, in assay [5], binding was put at a Kd of 33.3 nM.

B3: NOV169N31Q Fab (Fab, V domains shown)
VH: B1 VH
VL: B1 VL
notes: Expressed in E. coli; also called Fab fragment of NOV169N31Q
Regarding B3, the binding result in assay [6] and in assay [7] was “no binding” throughout.
